Substrate in data set [1]: CC(=O)N[C@H]1[C@@H](OP(=O)(O)OP(=O)(O)OC[C@H]2O[C@@H](n3ccc(=O)[nH]c3=O)[C@H](O)[C@@H]2O)O[C@H](CO)[C@@H](O)[C@@H]1O
Kind of data set: purified protein. As to conditions: UDP-GlcA fixed at 2.5 mM, Mg2+, 37 °C, GDN detergent.

Substrate in data set [2]: O=C(O)[C@H]1O[C@H](OP(=O)(O)OP(=O)(O)OC[C@H]2O[C@@H](n3ccc(=O)[nH]c3=O)[C@H](O)[C@@H]2O)[C@H](O)[C@@H](O)[C@@H]1O
Kind of data set: purified protein. The note with it: UDP-GlcNAc fixed at 2.5 mM, Mg2+, 37 °C, GDN detergent.

Broadly, the Km is the substrate concentration at which the rate is half of its maximum.

B1: Xl-HAS-1 (Xenopus laevis) (protein)
chain: MKEKAAETMEIPEGIPKDLEPKHPTLWRIIYYSFGVVLLATITAAYVAEFQVLKHEAILFSLGLYGLAMLLHLMMQSLFAFLEIRRVNKSELPCSFKKTVALTIAGYQENPEYLIKCLESCKYVKYPKDKLKIILVIDGNTEDDAYMMEMFKDVFHGEDVGTYVWKGNYHTVKKPEETNKGSCPEVSKPLNEDEGINMVEELVRNKRCVCIMQQWGGKREVMYTAFQAIGTSVDYVQVCDSDTKLDELATVEMVKVLESNDMYGAVGGDVRILNPYDSFISFMSSLRYWMAFNVERACQSYFDCVSCISGPLGMYRNNILQVFLEAWYRQKFLGTYCTLGDDRHLTNRVLSMGYRTKYTHKSRAFSETPSLYLRWLNQQTRWTKSYFREWLYNAQWWHKHHIWMTYESVVSFIFPFFITATVIRLIYAGTIWNVVWLLLCIQIMSLFKSIYACWLRGNFIMLLMSLYSMLYMTGLLPSKYFALLTLNKTGWGTSGRKKIVGNYMPILPLSIWAAVLCGGVGYSIYMDCQNDWSTPEKQKEMYHLLYGCVGYVMYWVIMAVMYWVWVKRCCRKRSQTVTLVHDIPDMCV
On to B1, for which the Km in “purified protein [1]” came out at 470 µM; in the data set “purified protein [2]”, 370 µM.

Source of the values: doi:10.1101/2023.05.11.540447v1.
